Measured values published in paper PMC11701102, “Structural insights into the interplay between microtubule polymerases, γ-tubulin complexes and their receptors” (Nature Communications, 2025).

Legend:
[1] = target: the molecule itself; assay: SEC-MALS + other: mass photometry; FLAG-Stu2 (10 µM) and His-Spc72^291-599 (60 µM) alone or mixed 1:1 (vol), Superdex 200 Increase 5/150, 50 mM Tris-HCl pH 7.5, 150 mM NaCl, room temperature; mass photometry below 40 nM
[2] = target: T1, His-Spc72^1-599 (C. albicans), co-expressed in insect cells (C. albicans, UniProt Q5AGV5 1-599); assay: SEC; FLAG-purified γ-TuSC/His-Spc72^1-599/FLAG-Stu2 on Superose 6 Increase 10/300 in HB100 buffer (40 mM K-HEPES pH 7.4, 100 mM KCl); fractions by SDS-PAGE, Western blot and gel densitometry; ring-like oligomers also seen by negative stain EM; conditions: both partners purified
T1 construct: Only the CM1 motif is resolved in the cryo-EM map, as a parallel dimeric coiled coil; source: Sf21 insect cells, MultiBac co-expression with γ-TuSC components and FLAG-Stu2 or His-GFP-Mzt1
T1 sequence (looked up): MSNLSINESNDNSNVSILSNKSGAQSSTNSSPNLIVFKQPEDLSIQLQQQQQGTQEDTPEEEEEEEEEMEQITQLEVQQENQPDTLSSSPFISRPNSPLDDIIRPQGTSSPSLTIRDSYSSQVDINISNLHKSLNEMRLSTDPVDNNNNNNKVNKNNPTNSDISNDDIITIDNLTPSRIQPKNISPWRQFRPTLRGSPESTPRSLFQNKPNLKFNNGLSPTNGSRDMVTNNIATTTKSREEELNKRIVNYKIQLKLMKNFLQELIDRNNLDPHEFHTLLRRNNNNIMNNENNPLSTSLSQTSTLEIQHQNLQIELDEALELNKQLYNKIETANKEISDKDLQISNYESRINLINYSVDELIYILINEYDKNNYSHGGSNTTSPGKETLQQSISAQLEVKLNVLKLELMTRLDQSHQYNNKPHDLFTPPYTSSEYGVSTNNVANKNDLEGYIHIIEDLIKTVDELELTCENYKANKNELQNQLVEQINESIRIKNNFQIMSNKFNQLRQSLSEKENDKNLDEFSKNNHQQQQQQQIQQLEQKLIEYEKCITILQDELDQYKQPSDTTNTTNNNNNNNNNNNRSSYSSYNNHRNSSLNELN

B1: FLAG-Stu2 (C. albicans, full length) (natural protein, UniProt A0A1D8PTZ8 1-924, looked up)
chain: MSTEEEDYSNLSLEERFVHKVWKVRLQAYEELATNIENSRNESDPIFTSLSLDNLKKMILDSNVVAQETGYNTFNKFLIFGGNAANVSKLKNLGIIGSICEKGLLSSRKNTKEWSVESILLMIEISNDPNSIVEDILPYLTNRLPKLVTGCVSCLASIIENFGCKIISPKPIVPCLSKLFAHADKNVRNETTKLTIELYRWMGDALINALFSDLKPVQQKDLTAAFEKEKGTSPQQKRYTKKQREEIERREQEAAAAAAAAAATTAGNGGGNGDDVDDVEMSDVNGVTDDNEYDPLEFVDPVEVLNKFPSDFDSRISSSKWKDRKEVLEEIIPILEKSPKLITTDDYLPVLRIWAKCMKDANIQVVQLAANCIEFVIKGLGNEFSKYQSVVLTPVVERLKEKKPSVATALDNVLDALFNLSGFGNGVLDEAINGMKLKTPQNKIASANFVKRCLSTTKIPPKTSEIDAIMEVGIKLLSESQEPIRQAATEMIGTLMKITGPRELKPFLEKVDENRKNKINDYYEETAQVKTTMANASKSSSVASGSRNVSTAGGSFSSSTMKPPSKSSQDRKTSSGASSIIPAKRTASSPAKRDEVKNGRGMTARSLAKPNIPSLRPPTNVTQDSSGDGSSFSQQQQQQQVPSTSTGGGSGGAQSMISSVTNEEVNLLKQQIIKLQEEVQNYKNQQESHLKTIKLLEESNNNYREEIESVKRELSNEKRNATITTNHKDTHINNLKSELEKANYRIKDLEQEREINRLQQSNLAFERSNISSSNSRNSFYKPSPNKFAPSDISTGVKRLSIGGEENNHFGGGGGASPNFHNNTIHSTNTTTSTTATASGAGIGTGVGTGTGTGTGTGMGISRPTNSFRSSVNYGSTSSLTSSSRRESMDIDNGADWKRAAEVTLQLKARIERMKARTRSPLNIE
notes: Stu2, C. albicans, full-length Met1 to Glu924; FLAG tag followed by an HRV 3C cleavage site at the 5' end; also called wild-type FLAG-Stu2; source: Sf21 insect cells; not shown: FLAG, N-terminal, kept
stoichiometry N [1]: 2
stoichiometry N [2]: < 2 Stu2 dimers per Spc72 dimer
